Reference: patent US20100239570A1

Experiments:
[1] = target: Abeta1-42 fibrils (UniProt P05067); test: ELISA, fibrils coated, antibody titrated
[2] = target: synthetic monomeric Abeta1-42 peptide (UniProt P05067); test: ELISA, peptide coated, antibody titrated
[3] = target: synthetic monomeric Abeta1-40 peptide (UniProt P05067); test: ELISA, peptide coated, antibody titrated

B1: antibody NI-103 (antibody, V domains shown)
VH: EVQLHQSGPELVKPGASVKISCKTSGYTFTEYTMHWVKQSHGKSLEWIGGVNPYNDNTSYIRKLQGKVTLTVDRSSSTAYMELRSLTSEDSAVYFCARYGGLRPYYFPMDFWGQGTSVTVSS
VL: QVVLSQSPAILSASPGERVTLTCRASSSVNYMHWYQQKPGSSPKAWIYATSNLASGVPDRFSASGSGTSYSLTISRVEAEDAATYYCQQWRTNPPTFGAGTKLELKR
Work on B1 yielded an EC50 [1] of 0.07 nM, an EC50 [2] of 0.061 nM and an EC50 [3] of 0.04 nM.
